The values below come from IntAct's records for PubMed 22791719.

To fix the notation:
B1: Phospholipid-transporting ATPase accessory subunit CRF1 (Saccharomyces cerevisiae), P53740 (parent)
chain: MGLILRWKEKKQLSSKQNAQKSRKPANTSFRQQRLKAWQPILSPQSVLPLLILMACVFAPIGIGLVVSTISVQRLVVNYTECDALAPAKHFETIPSEYVDYHFSKKVAVQPQWMVLTDPELGNQTCRIQFEVPNHIKKSTYVYYRLTNFNQNYREYVQSLDLDQLKGKALIGNDLDPNCDPLRTVENKTIFPCGLIANSMFNDTFGTTLTGVNDTADYLLTTKGIAWDTDSHRYGKTEYNASDIVPPPNWAKLFPNGYTDDNIPDLQNWEQFKIWMRTAALPNFYKLAMKNETNGLGKGIYIADIELNYPVRSFYGTKSFVLTTNSIIGAGNEALGIVYLIVAGIATLFAILFLIKVIFKPRPMHDHSYLNFENSDTPFDESSVVSIPLREIL
B2: Phospholipid-transporting ATPase accessory subunit CDC50 (Saccharomyces cerevisiae), P25656 (parent)
chain: MVSLFKRGKAPPLTKEGPTSKKPPNTAFRQQRLKAWQPILSPQSVLPLLIFVACIFTPIGIGLIVSATKVQDLTIDYSHCDTKASTTAFEDIPKKYIKYHFKSKVENKPQWRLTENENGEQSCELQFEIPNDIKKSIFIYYKITNFYQNHRRYVQSFDTKQILGEPIKKDDLDTSCSPIRSREDKIIYPCGLIANSMFNDTFSQVLSGIDDTEDYNLTNKHISWSIDRHRFKTTKYNASDIVPPPNWMKKYPDGYTDENLPDIHTWEEFQVWMRTAAFPKFYKLTLKNESASLPKGKYQMNIELNYPISLFGGTKSFVLTTNGAIGGRNMSLGVLYLIVAGLCALFGIIFLVKLIFQPRAMGDHTYLNFDDEENEDYEDVHAENTTLREIL
partner: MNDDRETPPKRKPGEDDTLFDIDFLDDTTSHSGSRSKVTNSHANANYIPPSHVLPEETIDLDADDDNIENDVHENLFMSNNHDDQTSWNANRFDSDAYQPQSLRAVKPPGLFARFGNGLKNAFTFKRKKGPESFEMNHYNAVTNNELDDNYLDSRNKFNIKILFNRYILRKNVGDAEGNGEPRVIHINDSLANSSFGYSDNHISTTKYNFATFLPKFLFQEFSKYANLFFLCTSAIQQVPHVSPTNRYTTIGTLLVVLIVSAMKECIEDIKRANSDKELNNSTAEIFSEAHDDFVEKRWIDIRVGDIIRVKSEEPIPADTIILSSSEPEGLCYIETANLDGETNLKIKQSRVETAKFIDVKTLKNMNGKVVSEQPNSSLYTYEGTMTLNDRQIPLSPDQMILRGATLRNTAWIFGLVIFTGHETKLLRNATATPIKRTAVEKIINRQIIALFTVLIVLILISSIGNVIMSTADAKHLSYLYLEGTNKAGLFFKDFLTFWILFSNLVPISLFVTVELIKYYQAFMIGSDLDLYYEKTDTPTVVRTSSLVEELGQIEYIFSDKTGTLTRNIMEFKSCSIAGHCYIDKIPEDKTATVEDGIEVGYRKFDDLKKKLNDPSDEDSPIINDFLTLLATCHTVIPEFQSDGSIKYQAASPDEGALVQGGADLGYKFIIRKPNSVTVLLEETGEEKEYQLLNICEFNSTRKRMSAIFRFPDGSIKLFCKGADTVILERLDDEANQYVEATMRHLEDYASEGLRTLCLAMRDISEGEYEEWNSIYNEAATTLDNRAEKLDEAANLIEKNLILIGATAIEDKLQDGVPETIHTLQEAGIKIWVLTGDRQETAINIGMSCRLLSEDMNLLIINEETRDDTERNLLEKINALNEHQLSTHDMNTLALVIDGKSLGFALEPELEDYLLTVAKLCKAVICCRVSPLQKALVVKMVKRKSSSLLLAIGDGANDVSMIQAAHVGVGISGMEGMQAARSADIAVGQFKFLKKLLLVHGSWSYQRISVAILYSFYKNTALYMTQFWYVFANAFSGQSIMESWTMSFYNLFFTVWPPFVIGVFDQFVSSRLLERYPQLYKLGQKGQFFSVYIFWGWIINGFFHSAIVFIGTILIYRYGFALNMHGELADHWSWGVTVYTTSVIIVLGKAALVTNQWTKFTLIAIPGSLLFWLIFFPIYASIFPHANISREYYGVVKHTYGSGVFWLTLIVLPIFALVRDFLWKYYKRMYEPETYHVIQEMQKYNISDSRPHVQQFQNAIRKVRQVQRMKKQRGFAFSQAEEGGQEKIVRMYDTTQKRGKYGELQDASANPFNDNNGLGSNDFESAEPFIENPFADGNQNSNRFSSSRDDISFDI
B3: Phospholipid-transporting ATPase DRS2 (Saccharomyces cerevisiae), P39524 (parent)
chain: B2 partner
partner: B2 chain
B4: Phospholipid-transporting ATPase accessory subunit LEM3 (Saccharomyces cerevisiae), P42838 (parent)
chain: MVNFDLGQVGEVFRRKDKGAIVSGDNPEEEEDVDASEFEEDEVKPVRTKNRRPKEDAFTQQRLAAINPVLTPRTVLPLYLLIAVVFVIVGGCILAQNSKVDEVTIYYQDCMTNATSSWSDIPSEHWQFVFHKYKTYNTAPQWRFVDDESDDFTKQRGTCQIRFTTPSDMKNNVYLNYVLEKFAANHRRYVLSFSEDQIRGEDASYETVHDATGINCKPLSKNADGKIYYPCGLIANSMFNDTFPLQLTNVGDTSNNYSLTNKGINWESDKKRYKKTKYNYTQIAPPPYWEKMYPDGYNETNIPDIQDWEEFQNWMRPGAFDKITKLIRINKNDTLPAGEYQLDIGLHWPVLEFNGKKGIYLTHGSHLGGRNPFLGIVYLIGGCICAAMALILLTFWLFGGRKIADASSLSWNMK

In the first test the parent is B1. The following applies: with atc8_yeast DNF3, Q12674.
Sequence of atc8_yeast DNF3, Q12674 (Q12674 whole entry): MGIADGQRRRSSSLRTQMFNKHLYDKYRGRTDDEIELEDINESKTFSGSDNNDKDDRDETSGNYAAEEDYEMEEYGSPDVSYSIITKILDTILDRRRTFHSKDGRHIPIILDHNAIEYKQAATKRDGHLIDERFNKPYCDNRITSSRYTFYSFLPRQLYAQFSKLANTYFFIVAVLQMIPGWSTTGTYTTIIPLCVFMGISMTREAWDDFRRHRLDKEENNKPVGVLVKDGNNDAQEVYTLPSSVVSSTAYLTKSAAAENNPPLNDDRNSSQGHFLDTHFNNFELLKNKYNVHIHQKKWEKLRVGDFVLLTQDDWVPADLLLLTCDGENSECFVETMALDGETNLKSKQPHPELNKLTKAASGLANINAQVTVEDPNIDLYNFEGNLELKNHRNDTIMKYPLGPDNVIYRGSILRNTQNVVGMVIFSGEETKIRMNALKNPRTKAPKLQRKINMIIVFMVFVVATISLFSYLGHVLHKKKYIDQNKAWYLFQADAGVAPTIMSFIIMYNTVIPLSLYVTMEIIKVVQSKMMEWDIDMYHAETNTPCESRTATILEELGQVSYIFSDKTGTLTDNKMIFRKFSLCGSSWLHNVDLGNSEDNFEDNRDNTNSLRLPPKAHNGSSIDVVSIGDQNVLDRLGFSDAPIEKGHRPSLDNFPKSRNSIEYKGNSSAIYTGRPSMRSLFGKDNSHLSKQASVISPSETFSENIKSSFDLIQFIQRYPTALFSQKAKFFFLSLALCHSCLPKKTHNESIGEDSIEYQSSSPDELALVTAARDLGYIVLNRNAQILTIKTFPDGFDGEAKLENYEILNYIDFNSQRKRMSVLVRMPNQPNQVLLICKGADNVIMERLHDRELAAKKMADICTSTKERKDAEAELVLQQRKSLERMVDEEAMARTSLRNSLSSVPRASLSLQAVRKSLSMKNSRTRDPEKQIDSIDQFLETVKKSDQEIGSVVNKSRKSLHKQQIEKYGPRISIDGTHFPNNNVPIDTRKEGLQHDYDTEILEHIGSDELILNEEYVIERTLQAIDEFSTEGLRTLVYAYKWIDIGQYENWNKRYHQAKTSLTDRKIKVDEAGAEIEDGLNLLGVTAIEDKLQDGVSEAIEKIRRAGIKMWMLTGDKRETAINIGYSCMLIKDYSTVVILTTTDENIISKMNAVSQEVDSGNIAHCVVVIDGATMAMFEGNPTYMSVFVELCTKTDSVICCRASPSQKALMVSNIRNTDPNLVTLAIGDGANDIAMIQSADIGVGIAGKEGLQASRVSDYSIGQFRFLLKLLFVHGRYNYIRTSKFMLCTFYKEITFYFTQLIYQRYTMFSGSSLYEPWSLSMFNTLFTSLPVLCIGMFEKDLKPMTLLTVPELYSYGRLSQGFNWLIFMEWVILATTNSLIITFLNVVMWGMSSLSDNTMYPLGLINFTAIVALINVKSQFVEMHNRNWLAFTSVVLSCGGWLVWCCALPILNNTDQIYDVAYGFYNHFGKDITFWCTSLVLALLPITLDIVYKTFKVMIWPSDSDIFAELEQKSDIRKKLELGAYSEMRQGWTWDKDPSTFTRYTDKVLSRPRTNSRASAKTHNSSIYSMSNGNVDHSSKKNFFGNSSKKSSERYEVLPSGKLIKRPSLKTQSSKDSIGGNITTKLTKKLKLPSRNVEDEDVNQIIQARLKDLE
Consider C193A, for which the “effect of a mutation on the interaction” value was “decreasing interaction strength”.
On the same count and under the same terms, in the case of C179A it was “decreasing interaction strength”.
Same read-out and setting: in the case of C126A it was “disrupting interaction strength”; in that of C82A, “disrupting interaction strength”.

Variants of B2 are the subject of the next test. The following applies: with atc3_yeast DRS2, P39524.
C176A: the “effect of a mutation on the interaction” value was “decreasing interaction strength”.
Still for that read-out and setting: in the case of C190A it was “decreasing interaction strength”; in that of C80A, “disrupting interaction strength”.
On the same count and under the same terms, in the case of C123A it was “disrupting interaction strength”.

In the next test the parent is B3. The following applies: with cdc50_yeast CDC50, P25656.
With G341L, the “effect of a mutation on the interaction” value is given as “disrupting interaction strength”.
On the same count and under the same terms, in the case of E342Q it was “with no effect”.
The same measure, in the same setting: in the case of D560N it was “disrupting interaction strength”.

A further test covers variants of B4. The following applies: with atc5_yeast DNF1, P32660.
Sequence of atc5_yeast DNF1, P32660 (P32660 whole entry): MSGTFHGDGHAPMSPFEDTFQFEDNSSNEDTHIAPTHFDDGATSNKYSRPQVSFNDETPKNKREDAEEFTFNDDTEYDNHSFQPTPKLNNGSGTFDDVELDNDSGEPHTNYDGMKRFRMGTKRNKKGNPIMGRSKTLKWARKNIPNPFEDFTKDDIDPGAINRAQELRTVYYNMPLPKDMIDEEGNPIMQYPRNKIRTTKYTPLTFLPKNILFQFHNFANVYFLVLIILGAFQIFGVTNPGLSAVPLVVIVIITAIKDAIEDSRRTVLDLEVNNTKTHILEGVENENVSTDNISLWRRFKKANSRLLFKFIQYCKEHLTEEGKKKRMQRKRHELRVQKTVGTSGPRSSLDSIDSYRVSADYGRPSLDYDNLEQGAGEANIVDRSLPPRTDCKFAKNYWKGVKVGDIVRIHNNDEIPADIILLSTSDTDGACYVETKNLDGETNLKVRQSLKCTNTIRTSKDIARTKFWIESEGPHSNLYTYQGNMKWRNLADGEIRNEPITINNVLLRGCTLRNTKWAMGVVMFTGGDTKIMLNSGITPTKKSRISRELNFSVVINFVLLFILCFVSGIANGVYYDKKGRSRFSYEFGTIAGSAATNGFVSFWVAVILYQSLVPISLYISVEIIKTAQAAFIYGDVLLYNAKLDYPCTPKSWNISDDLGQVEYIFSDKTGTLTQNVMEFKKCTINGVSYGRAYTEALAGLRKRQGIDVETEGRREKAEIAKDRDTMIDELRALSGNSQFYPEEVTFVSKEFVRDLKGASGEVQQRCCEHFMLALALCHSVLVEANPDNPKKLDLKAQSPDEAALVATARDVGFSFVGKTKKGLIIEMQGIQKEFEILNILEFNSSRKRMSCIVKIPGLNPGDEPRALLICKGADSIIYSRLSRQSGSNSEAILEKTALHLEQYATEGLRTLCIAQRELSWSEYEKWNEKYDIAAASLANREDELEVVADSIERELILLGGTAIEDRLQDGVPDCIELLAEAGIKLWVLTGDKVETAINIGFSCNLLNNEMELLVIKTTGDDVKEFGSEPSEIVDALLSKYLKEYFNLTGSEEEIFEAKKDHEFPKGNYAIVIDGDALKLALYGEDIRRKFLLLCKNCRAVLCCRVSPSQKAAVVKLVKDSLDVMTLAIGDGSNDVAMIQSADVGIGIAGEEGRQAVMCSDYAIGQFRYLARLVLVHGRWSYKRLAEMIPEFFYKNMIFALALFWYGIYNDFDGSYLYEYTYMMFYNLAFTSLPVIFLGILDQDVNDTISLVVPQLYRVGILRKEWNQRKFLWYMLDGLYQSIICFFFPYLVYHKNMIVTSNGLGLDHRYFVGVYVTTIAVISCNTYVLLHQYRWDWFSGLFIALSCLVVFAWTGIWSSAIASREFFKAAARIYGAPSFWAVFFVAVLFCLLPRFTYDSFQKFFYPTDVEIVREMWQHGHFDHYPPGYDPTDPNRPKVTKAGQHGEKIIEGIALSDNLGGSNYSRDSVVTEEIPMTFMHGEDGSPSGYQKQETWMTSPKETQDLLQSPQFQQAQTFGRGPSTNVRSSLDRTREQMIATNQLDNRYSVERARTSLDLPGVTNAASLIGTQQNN
Turning to A404V, the “effect of a mutation on the interaction” value is “disrupting interaction strength”.
Still for that read-out and setting: in the case of S237L it was “disrupting interaction strength”; in that of G375E, “disrupting interaction strength”.
The same measure, in the same setting: in the case of A83T it was “disrupting interaction strength”; in that of C110A, “disrupting interaction strength”; in that of C231A, “decreasing interaction strength”.
The same measure, in the same setting: in the case of C159A it was “disrupting interaction strength”.
With C216A, the “effect of a mutation on the interaction” value is “disrupting interaction strength”.

Another test covers variants of B4. The note with it: with atc5_yeast DNF1, P32660. This is another data set of the same source.
With A65V, the “effect of a mutation on the interaction” value is on record as “decreasing interaction strength”.
